Test results from US20230002507A1 (Novartis, published 2023).

Columns and labels:
Human FXI zymogen = Human FXI zymogen (human, UniProt P03951 19-625); experiment: cell-based or functional assay
Human FXI activated = Human FXI activated (human, UniProt P03951 19-387; P03951 388-625); experiment: cell-based or functional assay
Human FXI activated, sequence (P03951 19-387 C226S limits assumed, chain 1 of 2): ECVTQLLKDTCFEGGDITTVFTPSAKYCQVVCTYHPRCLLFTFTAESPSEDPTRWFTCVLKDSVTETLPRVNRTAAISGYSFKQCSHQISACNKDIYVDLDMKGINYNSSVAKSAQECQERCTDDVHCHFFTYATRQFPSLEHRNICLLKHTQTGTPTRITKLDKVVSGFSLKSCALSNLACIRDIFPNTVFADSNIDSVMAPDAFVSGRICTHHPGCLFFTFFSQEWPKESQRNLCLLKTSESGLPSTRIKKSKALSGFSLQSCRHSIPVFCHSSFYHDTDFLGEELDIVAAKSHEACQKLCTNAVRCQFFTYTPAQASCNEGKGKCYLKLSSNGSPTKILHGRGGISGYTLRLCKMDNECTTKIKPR
Human FXI activated, sequence (P03951 388-625 limits assumed, chain 2 of 2): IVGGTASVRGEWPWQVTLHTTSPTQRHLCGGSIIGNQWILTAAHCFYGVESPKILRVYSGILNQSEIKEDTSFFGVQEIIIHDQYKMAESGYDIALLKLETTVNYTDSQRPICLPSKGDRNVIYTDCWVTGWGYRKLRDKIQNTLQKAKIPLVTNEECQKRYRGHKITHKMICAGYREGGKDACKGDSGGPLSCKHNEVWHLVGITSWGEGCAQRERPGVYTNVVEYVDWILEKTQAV

Human FXI zymogen, sequence (P03951 19-625 C226S limits assumed): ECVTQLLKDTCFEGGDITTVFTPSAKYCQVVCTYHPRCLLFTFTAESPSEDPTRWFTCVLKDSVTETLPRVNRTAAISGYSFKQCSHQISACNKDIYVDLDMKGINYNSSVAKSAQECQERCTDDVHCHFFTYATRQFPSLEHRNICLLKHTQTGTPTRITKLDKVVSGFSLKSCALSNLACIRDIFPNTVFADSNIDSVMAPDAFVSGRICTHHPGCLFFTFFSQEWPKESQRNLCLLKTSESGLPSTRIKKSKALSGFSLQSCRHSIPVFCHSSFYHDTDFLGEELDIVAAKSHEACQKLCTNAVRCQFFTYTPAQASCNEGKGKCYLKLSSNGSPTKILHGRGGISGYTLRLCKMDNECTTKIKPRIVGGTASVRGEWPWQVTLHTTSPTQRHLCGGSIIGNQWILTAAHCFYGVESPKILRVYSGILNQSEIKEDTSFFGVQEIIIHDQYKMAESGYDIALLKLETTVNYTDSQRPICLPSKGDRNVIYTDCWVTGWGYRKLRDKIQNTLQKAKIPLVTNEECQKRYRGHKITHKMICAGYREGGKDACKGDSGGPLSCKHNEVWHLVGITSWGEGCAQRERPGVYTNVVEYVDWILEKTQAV

B1: NOV1401-IgG (antibody, V domains shown)
VH: QVQLLESGGGLVQPGGSLRLSCAASGFTFSTAAMSWVRQAPGKGLEWVSGISGSGSSTYYADSVKGRFTISRDNSKNTLYLQMNSLRAEDTAVYYCARELSYLYSGYYFDYWGQGTLVTVSS
VL: QSVLTQPPSASGTPGQRVTISCSGSSSNIGSNDVSWYQQLPGTAPKLLIYKNYNRPSGVPDRFSGSKSGTSASLAISGLQSEDEADYYCSAWDQRQFDVVFGGGTKLTVLG
Human FXI zymogen
  IC50, thrombin generation assay (TGA) in pooled human plasma: 24 nM
Human FXI activated
  IC50, inhibition of FXIa enzymatic activity (cleavage of the fluorescent peptide substrate BS-2494): ~0.16 nM
  IC50, inhibition of the enzymatic activity of full length human FXIa (cleavage of a fluorescently labelled peptide): 0.16 nM
